Positions count from the first letter of the chain named.
B1: ADC1 (antibody, human IgG1, kappa, V domains shown)
VH: EVQLQQSGPELLKPGASVKMSCKASGYIFTDYFMNWVKQSCGKSLEWIGRVNPKNGDITYNQKFRGKATLTVDKSLTTAYMQLNSLTSEDSAVYFCAYDGYYDGMDFWGQGTSVTVSS
VL: ENVLTQSPAIMSASPGEKVTMTCRANSSVSSNFLHWYQQKSGASPKLWISSTSNLAFGVPPRFSGSGSGTSYSLTISSVEAEDAATYYCHQYSGHPFTFGSGTKLEIKR
modifications: vc-seco-DUBA linker-drug on the engineered cysteine at HC position 41 (Kabat); DAR 1.5
B2: ADC3a (antibody, human IgG1, kappa, V domains shown)
VH: QVQLVQSGAEVKKPGASVKVSCKASGYTFTDYYLNWVRQACGQGLEWMGLIFPGNDKTEYSEKFKGRVTLTTDTSISTAYMELSSLTSDDTALYYCSGGDYGGFVYWGQGTLVTVSS
VL: DIQLTQSPSSLSASVGDRVTITCGASENIYGALNWYQQKPGKAPKLLIYGATNLADGVPSRFSGSGSGTDFTLTISSLQPEDFATYYCQNVLSSPLTFGPGTKVDIKR
modifications: vc-seco-DUBA linker-drug on the engineered cysteine at HC position 41 (Kabat); DAR 1.9
B3: ADC3d (antibody, human IgG1, kappa, V domains shown)
VH: B2 VH with V5Q, Q6E, L70M, T72R, I76T, A79V, T87R, D89E, L93V
VL: B2 VL
modifications: vc-seco-DUBA linker-drug on the engineered cysteine at HC position 41 (Kabat); DAR 1.8
B4: ADC3c (antibody, human IgG1, kappa, V domains shown)
VH: B2 VH
VL: B2 VL with L4M, F83V, P100S, V104L, D105E
modifications: vc-seco-DUBA linker-drug on the engineered cysteine at HC position 41 (Kabat); DAR 1.8
B5: ADC3e (antibody, human IgG1, kappa, V domains shown)
VH: B2 VH with V5Q, Q6E, L70M, T72R, I76T, A79V, T87R, D89E, L93V
VL: B2 VL with L4M, F83V, P100S, V104L, D105E
modifications: vc-seco-DUBA linker-drug on the engineered cysteine at HC position 41 (Kabat); DAR 1.9
B6: ADC2 (antibody, human IgG1, kappa, V domains shown)
VH: QVQLQQSGAELVRPGASVKLSCKASGYVFPDYEMHWVKQTCVHGLEWIGAFDPETGDTTYNQNFKGKATLTADKASSTAYMDLRSLTSGDSAVYYCARDYKYLYYYAMDNWGQGTSVTVSS
VL: QIVLTQSPAIMSASLGERVTMTCTASSSITSSYLHWYQQKPGSSPKLWIYSTTNLASGVPGRFSGSGSGTSFSLTISSMEAEDAATYYCHQYRRSPLTFGAGTKLELKR
modifications: vc-seco-DUBA linker-drug on the engineered cysteine at HC position 41 (Kabat); DAR 1.7
B7: ADC2a (antibody, human IgG1, kappa, V domains shown)
VH: QVQLVQSGAELRKPGSSVKVSCRASGYVFPDYEMHWVRQACGQGLEWMGAFDPETGDTTYNQNFKGRVTIAADKSTSTAYMELRSLRSEDTAIYYCARDYKYLYYYAMDNWGQGTMVTVSS
VL: EIVLTQSPSLLSASIGDRVTIPCTASSSITSSYLHWYQQKPGKAPKLLIYSTTNLASGVPSRFSGSGSGTEFTLTISSLQPEDFATYYCHQYRRSPLTFGGGTKLEIKR
modifications: vc-seco-DUBA linker-drug on the engineered cysteine at HC position 41 (Kabat); DAR 1.7
B8: ADC2b (antibody, human IgG1, kappa, V domains shown)
VH: B7 VH with L11V, R12K, R23K, A71T, R84S, I93V, M116T
VL: B7 VL with E1D, V3Q, L4M, L10S, I15V, P22T, E71D
modifications: vc-seco-DUBA linker-drug on the engineered cysteine at HC position 41 (Kabat); DAR 1.7
B9: ADC2c (antibody, human IgG1, kappa, V domains shown)
VH: B7 VH with L11V, R12K, R23K, A71T, R84S, I93V, M116T
VL: B7 VL
modifications: vc-seco-DUBA linker-drug on the engineered cysteine at HC position 41 (Kabat); DAR 1.7
B10: ADC3 (antibody, human IgG1, kappa, V domains shown)
VH: QIQLQQSGPELVKPGASVKISCKASGYTFTDYYLNWVKQRCGQGLEWIGLIFPGNDKTEYSEKFKGKATLTVDTSSSTAYIQLSRLSSEDSAIYFCSGGDYGGFVYWGQGTLVTVSS
VL: DIQMTQSPTSLSASVGETVTITCGASENIYGALNWYQRKQGKSPQLLIYGATNLADGMSSRFSGSGSGRQFSLKINSLHPDDVATYFCQNVLSSPLTFGSGTKLEIKR
modifications: vc-seco-DUBA linker-drug on the engineered cysteine at HC position 41 (Kabat); DAR 1.1
B11: ADC1a (antibody, human IgG1, kappa, V domains shown)
VH: QVQLVQSGAEVKKPGASVKVSCKASGYIFTDYFMNWVRQACGQGLEWMGRVNPKNGDITYNQKFRGRVSLTKDTSINTAYMELSGLTSDDTAIYYCAYDGYYDGMDFWGQGTSVTVSS
VL: ELVMTQSPSSLSASVGDRVTITCRANSSVSSNFLHWYQQKPGKAPKLLISSTSNLAFGVPSRFSGTGSGTDFSLTISSLQPEDFAIYYCHQYSGHPFTFGQGTKLEIKR
modifications: vc-seco-DUBA linker-drug on the engineered cysteine at HC position 41 (Kabat); DAR 1.7

Target: human c-Met (HGFR), full length, on the cell surface (human) (UniProt P08581)
Sequence (P08581 25-1390 limits assumed): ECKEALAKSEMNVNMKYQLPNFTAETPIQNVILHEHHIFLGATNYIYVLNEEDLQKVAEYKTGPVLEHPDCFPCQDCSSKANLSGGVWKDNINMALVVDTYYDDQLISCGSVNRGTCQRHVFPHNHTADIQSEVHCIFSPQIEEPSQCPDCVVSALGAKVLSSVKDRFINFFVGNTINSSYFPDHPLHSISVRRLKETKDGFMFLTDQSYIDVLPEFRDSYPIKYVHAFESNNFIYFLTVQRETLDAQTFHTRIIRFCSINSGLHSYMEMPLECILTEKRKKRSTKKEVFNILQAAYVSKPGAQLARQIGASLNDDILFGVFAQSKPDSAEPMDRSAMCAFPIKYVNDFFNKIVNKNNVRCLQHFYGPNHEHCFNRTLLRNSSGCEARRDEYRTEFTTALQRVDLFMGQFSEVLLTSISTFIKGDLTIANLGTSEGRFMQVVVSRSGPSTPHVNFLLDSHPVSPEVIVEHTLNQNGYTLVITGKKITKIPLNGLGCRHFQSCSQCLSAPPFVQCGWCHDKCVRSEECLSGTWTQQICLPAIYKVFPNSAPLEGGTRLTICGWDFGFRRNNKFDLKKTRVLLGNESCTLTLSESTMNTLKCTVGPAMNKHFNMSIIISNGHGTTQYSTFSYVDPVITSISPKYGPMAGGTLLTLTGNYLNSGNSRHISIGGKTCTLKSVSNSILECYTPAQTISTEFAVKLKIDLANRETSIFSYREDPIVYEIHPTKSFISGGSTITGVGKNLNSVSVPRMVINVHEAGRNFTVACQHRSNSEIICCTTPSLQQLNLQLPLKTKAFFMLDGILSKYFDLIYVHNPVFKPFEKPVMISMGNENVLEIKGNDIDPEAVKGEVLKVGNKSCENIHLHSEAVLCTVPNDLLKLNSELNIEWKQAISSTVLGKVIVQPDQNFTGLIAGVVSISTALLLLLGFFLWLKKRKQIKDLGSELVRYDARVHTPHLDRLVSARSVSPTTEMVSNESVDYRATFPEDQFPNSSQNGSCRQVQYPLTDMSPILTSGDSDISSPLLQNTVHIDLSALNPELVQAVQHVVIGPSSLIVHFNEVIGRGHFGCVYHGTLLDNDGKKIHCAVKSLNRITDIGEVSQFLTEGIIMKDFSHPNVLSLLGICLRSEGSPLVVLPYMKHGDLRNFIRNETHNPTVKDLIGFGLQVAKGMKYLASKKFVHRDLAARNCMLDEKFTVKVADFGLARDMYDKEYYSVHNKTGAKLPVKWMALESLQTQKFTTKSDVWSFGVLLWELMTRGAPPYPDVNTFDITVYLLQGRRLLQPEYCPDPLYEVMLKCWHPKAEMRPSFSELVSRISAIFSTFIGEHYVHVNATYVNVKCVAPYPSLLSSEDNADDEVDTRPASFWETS
Test: cell-based or functional assay

Molecule	Efficacy (%), in vitro cytotoxicity, MKN-45, -HGF [%]	Efficacy (%), in vitro cytotoxicity, NCI-H596, +HGF [%]	Efficacy (%), in vitro cytotoxicity, NCI-H596, -HGF [%]	Efficacy (%), in vitro cytotoxicity, PC-3, +HGF [%]	Efficacy (%), in vitro cytotoxicity, PC-3, -HGF [%]	IC50, in vitro cytotoxicity, MKN-45, -HGF [nM]	IC50, in vitro cytotoxicity, NCI-H596, +HGF [nM]	IC50, in vitro cytotoxicity, NCI-H596, -HGF [nM]	IC50, in vitro cytotoxicity, PC-3, +HGF [nM]	IC50, in vitro cytotoxicity, PC-3, -HGF [nM]
non-binding control ADC (rituximab-vc-seco-DUBA) (antibody)	0	18	7	36	36	> 10	> 10	> 10	> 10	> 10

Target: human c-Met (HGFR), full length, on the cell surface (human, UniProt P08581 25-1390)
Sequence (P08581 25-1390 limits assumed): as above
Test: cell-based or functional assay

Molecule	Efficacy (%), in vitro cytotoxicity, MKN-45, -HGF [%]	Efficacy (%), in vitro cytotoxicity, NCI-H596, +HGF [%]	Efficacy (%), in vitro cytotoxicity, NCI-H596, -HGF [%]	Efficacy (%), in vitro cytotoxicity, PC-3, +HGF [%]	Efficacy (%), in vitro cytotoxicity, PC-3, -HGF [%]	IC50, in vitro cytotoxicity, MKN-45, -HGF [nM]	IC50, in vitro cytotoxicity, NCI-H596, +HGF [nM]	IC50, in vitro cytotoxicity, NCI-H596, -HGF [nM]	IC50, in vitro cytotoxicity, PC-3, +HGF [nM]	IC50, in vitro cytotoxicity, PC-3, -HGF [nM]
B1	72	29	16	42	41	0.73	0.38	> 10	0.185	0.069
B2	85	43	3	72	73	0.55	2.14	> 10	~0.71	–
B3	82	41	5	73	74	0.5	2.17	> 10	~2.49	–
B4	84	44	10	72	73	0.41	1.89	> 10	~1.85	–
B5	81	44	11	74	74	0.46	2.52	> 10	~2.86	–
B6	76	32	6	69	69	0.44	> 10	> 10	~10	–
B7	86	26	8	76	77	0.44	> 10	> 10	~0.74	–
B8	84	34	10	75	77	0.4	> 10	> 10	~2.46	–
B9	84	32	3	75	76	0.41	> 10	> 10	~1.97	–
B10	50	53	16	30	24	0.77	1.86	> 10	0.224	0.076
B11	84	40	14	77	78	0.42	> 10	> 10	~1.22	–

Same assay, conditions: not given

Molecule	IC50 1, in vitro cytotoxicity, PC-3, -HGF [nM]	IC50 2, in vitro cytotoxicity, PC-3, -HGF [nM]
B2	0.05	5.77
B3	0.04	54
B4	0.04	112
B5	0.04	541
B6	0.05	84
B7	0.06	40
B8	0.05	100
B9	0.08	58
B11	0.6	224

Source: US20240376214A1, “ANTI-C-MET ANTIBODIES AND ANTIBODY-DRUG CONJUGATES” (BYONDIS B.V., priority 2021, published 2024)
